Measured values reported in patent publication US20040038876A1.

Biological target: Ptc-1
Assay: Ptc-1 binding assay, format not described

Row | Ptc binding | Substance
1 | 1 nM | Shh C1II/A169C, 5 K PEG (from UniProt Q15465 25-197) (ligand)
2 | 0.4 nM | Shh C1II/A169C, NEM-modified (from UniProt Q15465 25-197) (ligand)
3 | 1.1 nM | Shh C1II/A169C, unmodified (from UniProt Q15465 25-197) (ligand)
4 | 32 nM | mutant 17 (Shh C1II/A169C + N27C), 5 K PEG (from UniProt Q15465 25-197) (ligand)
5 | 0.3 nM | mutant 17 (Shh C1II/A169C + N27C), NEM-modified (from UniProt Q15465 25-197) (ligand)
6 | 1.3 nM | mutant 17 (Shh C1II/A169C + N27C), unmodified (from UniProt Q15465 25-197) (ligand)
7 | 2 nM | mutant 18 (Shh C1II/A169C + N46C), 5 K PEG (from UniProt Q15465 25-197) (ligand)
8 | 2 nM | mutant 18 (Shh C1II/A169C + N46C), NEM-modified (from UniProt Q15465 25-197) (ligand)
9 | 3 nM | mutant 19 (Shh C1II/A169C + Y57C), 5 K PEG (from UniProt Q15465 25-197) (ligand)
10 | 1 nM | mutant 19 (Shh C1II/A169C + Y57C), NEM-modified (from UniProt Q15465 25-197) (ligand)
11 | 3 nM | mutant 20 (Shh C1II/A169C + N68C), 5 K PEG (from UniProt Q15465 25-197) (ligand)
12 | 2 nM | mutant 20 (Shh C1II/A169C + N68C), NEM-modified (from UniProt Q15465 25-197) (ligand)
13 | 3 nM | mutant 20 (Shh C1II/A169C + N68C), unmodified (from UniProt Q15465 25-197) (ligand)
14 | 35 nM | mutant 21 (Shh C1II/A169C + N92C), 5 K PEG (from UniProt Q15465 25-197) (ligand)
15 | 0.3 nM | mutant 21 (Shh C1II/A169C + N92C), NEM-modified (from UniProt Q15465 25-197) (ligand)
16 | 85 nM | mutant 22 (Shh C1II/A169C + S154C), 5 K PEG (from UniProt Q15465 25-197) (ligand)
17 | 8.3 nM | mutant 22 (Shh C1II/A169C + S154C), NEM-modified (from UniProt Q15465 25-197) (ligand)
18 | 3.9 nM | mutant 22 (Shh C1II/A169C + S154C), unmodified (from UniProt Q15465 25-197) (ligand)
19 | 8 nM | mutant 24 (Shh C1II/A169C + S112C), 5 K PEG (from UniProt Q15465 25-197) (ligand)
20 | 0.6 nM | mutant 24 (Shh C1II/A169C + S112C), NEM-modified (from UniProt Q15465 25-197) (ligand)
21 | 33 nM | mutant 25 (Shh C1II/A169C + S133C), 5 K PEG (from UniProt Q15465 25-197) (ligand)
22 | 0.4 nM | mutant 25 (Shh C1II/A169C + S133C), NEM-modified (from UniProt Q15465 25-197) (ligand)
23 | 3.7 nM | mutant 25 (Shh C1II/A169C + S133C), unmodified (from UniProt Q15465 25-197) (ligand)
24 | 12 nM | mutant 44 (Shh C1II/A169C + E113C), 5 K PEG (from UniProt Q15465 25-197) (ligand)
25 | 0.5 nM | mutant 44 (Shh C1II/A169C + E113C), NEM-modified (from UniProt Q15465 25-197) (ligand)
26 | 2.3 nM | mutant 44 (Shh C1II/A169C + E113C), unmodified (from UniProt Q15465 25-197) (ligand)
27 | 42 nM | wild type Shh, 5 K PEG (from UniProt Q15465 24-197) (ligand)
28 | 1.4 nM | wild type Shh, NEM-modified (from UniProt Q15465 24-197) (ligand)
29 | 2.4 nM | wild type Shh, unmodified (from UniProt Q15465 24-197) (ligand)
